These results are taken from PMC11058611, “Characterization of a novel GH30 non-specific endoxylanase AcXyn30B from Acetivibrio clariflavus” (Applied Microbiology and Biotechnology, 2024).

Substrate in data set [1]: O=[N+]([O-])c1ccc(O[C@@H]2OC[C@@H](O[C@@H]3OC[C@@H](O)[C@H](O)[C@H]3O)[C@H](O)[C@H]2O)cc1
The data set is described as follows: purified protein. In kind it is biochemical, Acetivibrio clariflavus. Particulars: 50 mM sodium phosphate buffer, pH 6, 40 °C, 0.05–1 mM substrate.

Substrate in data set [2]: O=[N+]([O-])c1ccc(O[C@@H]2OC[C@@H](O[C@@H]3OC[C@@H](O[C@@H]4OC[C@@H](O)[C@H](O)[C@H]4O)[C@H](O)[C@H]3O)[C@H](O)[C@H]2O)cc1
Kind of data set: purified protein. Format: biochemical, Acetivibrio clariflavus. Particulars: 50 mM sodium phosphate buffer, pH 6, 40 °C, 0.05–1 mM substrate.

B1: AcXyn30B (Acetivibrio clariflavus DSM 19732) (protein)
chain: SYTASVDVNTTYQTLEGFGAAIAWYNDYLTTHPNKNDLYRILFYDSGLDILRLRNQYRNSNNFGYDDMEIVKYGKIMNPNLKVLLSSWSPPSDLKRNGVMNGGTLAKENGSFVYEKFADYWYNSLVAYRAKGIIPDYISIQNEPEYESGDWETCIFRETETSEYPSYAKALDAVYEKIKDLPDMPKILGVESAGIMNNTVQNYARYMDLSKVYGIAHHLYNGGDPYNPDSFNDIFRSLARDFADKPLFMTEYDYGTPFTTAELIHNSLVVEGVSGYFYWDLIWENSQRPLVAIEVPRNPEQWTTKEGYIISDFYYIMQQFAKFTDPGYKRVDASVSSNDIKVSAFVSPDKSKLTMIFINKGYSEHSVALDLKGYSSNKSIIYRTLPEGNERFKKVGSLFGNTVTLPARSVVTVALGVDDEEQIPPQLPTPTPKPESRSAYDIIQAEDYNEMYGIQCETIADDGNKNVAYIENGDYILFKGVDFGTGATGFEASVASAESGGAIEIRLDELYGTTVVKIPVSGTGDWHNYVTVKADIPEIKGKHDLYLVFTGGGGYLFNIDWFVFTGGTVENPVPEVIYGDVNGDGDFNSIDYGYLKMYLLGQIKEFPSKDGMIAADVNGDGTVNSIDYAYMKMRLLGQISKFPVE
notes: purchased from NZYTech (CZ0917); full-length 673 aa: signal peptide 28 aa, GH30 29-446, CBM6 469-593, dockerin 602-673
Turning to B1, in data set [1], the Km turned out to be 210 µM, the catalytic constant (kcat) stood at 7.4 s⁻¹ and the kcat/Km was 34900 M⁻¹ s⁻¹. For the same protein, in data set [2], the Km came out at 230 µM, the turnover number (kcat) came to 10.4 s⁻¹ and the kcat/Km was 56100 M⁻¹ s⁻¹.
